# From publication PMC4570275
# Molecular target: Glucocorticoid-induced TNFR-related protein (GITR) (mouse (endogenous in CD4+ T cells of mice)) (UniProt O35714)
# Chain of UniProt O35714 (O35714 20-228): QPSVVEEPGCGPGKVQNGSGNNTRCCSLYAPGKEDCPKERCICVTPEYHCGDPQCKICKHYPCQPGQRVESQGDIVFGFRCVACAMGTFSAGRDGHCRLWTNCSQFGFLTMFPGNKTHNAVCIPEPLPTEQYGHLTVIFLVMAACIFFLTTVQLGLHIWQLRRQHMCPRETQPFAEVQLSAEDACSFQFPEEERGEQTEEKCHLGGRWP
substance,measurement,value
His-tagged recombinant mouse GITR Ligand (from UniProt Q7TS55 1-173),"percent Foxp3+ T cells by flow cytometry: OT-II CD4+ T cells activated with OVA and autologous APCs, TGF-β and IL-2, 3 days; >60% without GITR stimulation",10%
same,percent Foxp3+ T cells by flow cytometry: WT B6 naive CD4+ T cells activated 3 days under iTreg-polarizing conditions with His-GITR Ligand (200 ng/ml plus anti-His mAb); ∼65% without GITR ligation,4%
same,percent IL-9+ Th9 cells by flow cytometry: WT B6 naive CD4+ T cells activated 3 days under iTreg-polarizing conditions with GITR ligation,30%
